# From the supplement of paper PMC6757056
# ± gives the standard deviation of the averaged measurements.
# B1: library; a variant is named by its letters at N, in order (parent)
# chain: GCUGUCACCGAGAAACUGUGAAGUAUAUCUUAAACCUGGGCACUUAAAAGAUAUAUGGAGUUAGUAGUGCAACCUGCUCGGUCUGAUGAGUCCNNNNNNGGACGAAACAGC
# What was measured:
# cyclic di-GMP [1] = variants of: B1; test: FACS-Seq fitted mean relative fluorescence mCherry/BFP without ligand (log10 relative fluorescence); HEK293T; ligand: cyclic di-GMP (c-di-GMP-II aptamer); higher = higher reporter protein expression; conditions: ligand present: no
# Outline: (§1)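 HEK293T libraries were made by lentiviral transduction with a ribozyme-switch mCherry reporter and an EF1α-BFP marker, enriched, and incubated with or without ligand for 48 h. Cells were sorted into 6 mCherry/BFP bins, and each bin's genomic DNA was PCR-amplified, barcoded and run on MiSeq. Fluorescence was derived by normal fitting of the bin counts. The fitted log10(mCherry/BFP) mean was scaled to five spiked-in control ribozymes.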
# cyclic di-GMP [2] = variants of: B1; test: normalized RNA/DNA level without ligand (relative to sTRSVctl = 100) (log10 (% of sTRSVctl)); HEK293T; ligand: cyclic di-GMP (c-di-GMP-II aptamer); higher = less ribozyme self-cleavage, higher mRNA level; conditions: reporter: mCherry (pCS4076), ligand present: no
# Protocol: (§2)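 Hammerhead (sTRSV) ribozyme switch libraries with a ligand aptamer grafted on stem I and a randomized N4-6 loop II, cloned into the 3' UTR of mCherry and transiently transfected into HEK293T cells; RNA-Seq 72 h post transfection with ligand added 1 h before transfection; RNA read count / plasmid DNA read count normalized to the non-cleaving sTRSVctl (x100), log10; sequences with >100 DNA reads. FACS-Seq: lentiviral library sorted into 6 bins after 48 h ligand, log-normal fit mean of mCherry/BFP scaled to controls. Printed sequences are partial switch sequences.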
# cyclic di-GMP [3] = variants of: B1; test: FACS-Seq fitted mean relative fluorescence mCherry/BFP with ligand (log10 relative fluorescence); HEK293T; ligand: cyclic di-GMP (c-di-GMP-II aptamer); ligand concentration (+) FACS-Seq: 1 mM; higher = higher reporter protein expression; conditions: ligand present: yes
# Outline: as §1
# cyclic di-GMP [4] = variants of: B1; test: normalized RNA/DNA level with ligand (relative to sTRSVctl = 100) (log10 (% of sTRSVctl)); HEK293T; ligand: cyclic di-GMP (c-di-GMP-II aptamer); ligand concentration (+) RNA-Seq: 1 mM; higher = less ribozyme self-cleavage, higher mRNA level; conditions: reporter: mCherry (pCS4076), ligand present: yes
# Protocol: as §2
Variant,FACS-Seq fitted mean (log10) (cyclic di-GMP [1]),normalized RNA/DNA level without ligand (log10) (cyclic di-GMP [2]),FACS-Seq fitted mean (log10) (cyclic di-GMP [3]),normalized RNA/DNA level with ligand (log10) (cyclic di-GMP [4])
AUGAGU,-0.416 ± 0.026,1.54 ± 0.019,-0.0836 ± 0.048,1.73 ± 0.14
AACGGA,-0.525 ± 0.046,1.32 ± 0.14,-0.253 ± 0.067,1.53 ± 0.13
AGGCUU,0.2 ± 0.22,1.655 ± 0.015,0.371 ± 0.029,1.85 ± 0.1
GCCCCU,0.163 ± 0.17,1.761 ± 0.0048,0.336 ± 0.019,1.89 ± 0.077
UUGUAG,-0.163 ± 0.065,1.6682 ± 0.00036,0.112 ± 0.032,1.83 ± 0.14
GCACUC,-0.286 ± 0.015,1.5 ± 0.056,0.125 ± 0.0091,1.69 ± 0.17
GACUUG,-0.257 ± 0.031,1.63 ± 0.023,-0.0923 ± 0.026,1.79 ± 0.12
GACAAC,-0.156 ± 0.0096,1.63 ± 0.022,0.197 ± 0.1,1.82 ± 0.12
CCCUCC,-0.844 ± 0.018,1.78 ± 0.029,-0.75619 ± 0.00069,1.89 ± 0.045
CUAUAA,-0.473 ± 0.065,1.41 ± 0.079,-0.255 ± 0.021,1.6 ± 0.11
UCGGUA,-0.583 ± 0.023,1.31 ± 0.18,-0.2658 ± 0.00058,1.52 ± 0.054
AUUGGA,-0.489 ± 0.028,1.45 ± 0.099,-0.102 ± 0.071,1.62 ± 0.1
GCCAGG,-0.568 ± 0.068,1.75 ± 0.071,-0.429 ± 0.034,1.84 ± 0.087
AAAGUU,-0.298 ± 0.1,1.59 ± 0.068,0.0631 ± 0.068,1.77 ± 0.03
CUCAGA,-0.23 ± 0.18,1.64 ± 0.041,0.0277 ± 0.043,1.78 ± 0.064
AGCGUC,-0.71 ± 0.022,1.78 ± 0.028,-0.542 ± 0.044,1.9 ± 0.15
CAGUAU,-0.4929 ± 0.0046,1.4 ± 0.1,-0.197 ± 0.0062,1.58 ± 0.17
GUGGAC,-0.519 ± 0.08,1.55 ± 0.092,-0.171 ± 0.053,1.75 ± 0.095
GCUAUA,-0.262 ± 0.11,1.55 ± 0.058,-0.134 ± 0.099,1.73 ± 0.11
GUGGUC,-0.682 ± 0.026,1.25 ± 0.077,-0.386 ± 0.015,1.46 ± 0.099
GUCGGA,-0.0744 ± 0.052,1.51 ± 0.073,0.242 ± 0.025,1.7 ± 0.071
UCAGUC,-0.277 ± 0.12,1.697 ± 0.0098,-0.0482 ± 0.1,1.85 ± 0.082
GUAUGA,-0.487 ± 0.16,1.42 ± 0.092,-0.189 ± 0.072,1.67 ± 0.081
AUCUAC,-0.188 ± 0.047,1.7235 ± 0.00012,0.162 ± 0.094,1.81 ± 0.12

Variant,FACS-Seq fitted mean (log10) (cyclic di-GMP [1]),normalized RNA/DNA level without ligand (log10) (cyclic di-GMP [2]),FACS-Seq fitted mean (log10) (cyclic di-GMP [3]),normalized RNA/DNA level with ligand (log10) (cyclic di-GMP [4])
AAAGGU,-0.701 ± 0.017,1.54 ± 0.054,-0.44 ± 0.065,1.71 ± 0.1
CCGAAG,-0.589 ± 0.031,1.31 ± 0.081,-0.24 ± 0.0033,1.51 ± 0.12
ACUAAA,-0.416 ± 0.14,1.41 ± 0.045,-0.0324 ± 0.021,1.62 ± 0.088
CCAUGC,0.318 ± 0.13,1.673 ± 0.0061,0.419 ± 0.012,1.82 ± 0.11
GACGGA,-0.135 ± 0.078,1.47 ± 0.078,0.0761 ± 0.072,1.63 ± 0.076
UAACGU,-0.388 ± 0.07,1.51 ± 0.095,-0.125 ± 0.05,1.71 ± 0.12
UUACCC,-0.256 ± 0.059,1.798 ± 0.0066,0.0203 ± 0.12,1.88 ± 0.11
CACAUA,-0.521 ± 0.032,1.26 ± 0.07,-0.272 ± 0.044,1.52 ± 0.093
AAAGUC,0.135 ± 0.29,1.574 ± 0.0057,0.392 ± 0.048,1.75 ± 0.1
GUAUUG,-0.534 ± 0.043,1.53 ± 0.044,-0.274 ± 0.037,1.71 ± 0.078
AAGACA,-0.415 ± 0.14,1.55 ± 0.044,-0.0423 ± 0.083,1.74 ± 0.1
GUCUGU,-0.165 ± 0.035,1.66 ± 0.044,0.0419 ± 0.17,1.81 ± 0.069
AUGUGU,-0.484 ± 0.16,1.53 ± 0.043,-0.314 ± 0.021,1.77 ± 0.11
UAAACA,0.0579 ± 0.081,1.742 ± 0.0053,0.349 ± 0.078,1.85 ± 0.079
AUAGAA,-0.406 ± 0.06,1.39 ± 0.077,-0.217 ± 0.058,1.61 ± 0.093
CGGACU,-0.791 ± 0.13,1.48 ± 0.14,-0.611 ± 0.11,1.64 ± 0.11
GCAAUG,-0.186 ± 0.0033,1.45 ± 0.14,0.131 ± 0.072,1.64 ± 0.069
UAUGGU,-0.169 ± 0.095,1.569 ± 0.014,0.0872 ± 0.053,1.76 ± 0.11
UGUCCU,-0.0961 ± 0.059,1.7541 ± 0.0017,0.158 ± 0.027,1.89 ± 0.1
CGUGAU,-0.47 ± 0.026,1.45 ± 0.057,-0.173 ± 0.018,1.69 ± 0.07
GCACAC,-0.421 ± 0.06,1.55 ± 0.034,0.00625 ± 0.1,1.69 ± 0.13
CUAAUA,-0.533 ± 0.025,1.39 ± 0.066,-0.316 ± 0.011,1.6 ± 0.12
CGGAAA,-0.619 ± 0.028,1.16 ± 0.075,-0.44 ± 0.058,1.28 ± 0.09
UUCGGA,-0.328 ± 0.044,1.58 ± 0.093,0.0771 ± 0.088,1.8 ± 0.081

Variant,FACS-Seq fitted mean (log10) (cyclic di-GMP [1]),normalized RNA/DNA level without ligand (log10) (cyclic di-GMP [2]),FACS-Seq fitted mean (log10) (cyclic di-GMP [3]),normalized RNA/DNA level with ligand (log10) (cyclic di-GMP [4])
GCGGAG,-0.301 ± 0.022,1.53 ± 0.13,-0.076 ± 0.067,1.7 ± 0.055
UAAUUU,-0.1701 ± 0.00076,1.688 ± 0.0068,-0.0196 ± 0.026,1.87 ± 0.11
UCGAGA,-0.546 ± 0.018,1.47 ± 0.0053,-0.217 ± 0.11,1.71 ± 0.16
CACUAA,-0.523 ± 0.058,1.3 ± 0.16,-0.243 ± 0.011,1.48 ± 0.13
CAGGAA,-0.629 ± 0.038,1.4 ± 0.099,-0.392 ± 0.12,1.51 ± 0.051
CUGAUG,-0.749 ± 0.029,1.39 ± 0.12,-0.5264 ± 0.0006,1.58 ± 0.081
CUAGAA,-0.5 ± 0.054,1.38 ± 0.091,-0.134 ± 0.032,1.6 ± 0.1
CGAAAA,-0.423 ± 0.02,1.26 ± 0.084,-0.315 ± 0.07,1.47 ± 0.1
CUAAUU,-0.314 ± 0.073,1.537 ± 0.0049,0.0103 ± 0.0086,1.74 ± 0.081
GAUUAA,-0.0108 ± 0.066,1.55 ± 0.057,0.211 ± 0.1,1.74 ± 0.087
UGCUUU,0.0721 ± 0.19,1.73 ± 0.025,0.309 ± 0.091,1.87 ± 0.11
AUGUAC,-0.466 ± 0.057,1.6256 ± 0.0011,-0.129 ± 0.17,1.79 ± 0.077
UAAGUA,-0.292 ± 0.034,1.609 ± 0.0095,-0.0651 ± 0.011,1.78 ± 0.086
CGUACA,-0.654 ± 0.072,1.32 ± 0.032,-0.354 ± 0.046,1.53 ± 0.12
UUAAGA,-0.227 ± 0.096,1.613 ± 0.01,0.2 ± 0.0086,1.76 ± 0.12
CGUCUC,0.2 ± 0.16,1.766 ± 0.015,0.3267 ± 0.0019,1.87 ± 0.11
AAGUUA,-0.499 ± 0.08,1.529 ± 0.0062,-0.215 ± 0.06,1.74 ± 0.14
CUCUAU,-0.312 ± 0.034,1.61 ± 0.036,-0.00561 ± 0.064,1.77 ± 0.096
CCUACC,-0.57 ± 0.25,1.757 ± 0.0078,-0.577 ± 0.048,1.85 ± 0.053
CAGCAA,-0.468 ± 0.048,1.36 ± 0.094,-0.2496 ± 0.00056,1.51 ± 0.061
UCACGA,-0.203 ± 0.066,1.632 ± 0.0055,0.146 ± 0.017,1.81 ± 0.091
CCAGUC,-0.422 ± 0.072,1.68 ± 0.023,-0.0312 ± 0.045,1.83 ± 0.077
AACUGG,-0.198 ± 0.17,1.59 ± 0.049,0.149 ± 0.048,1.77 ± 0.17
